Data from paper PMC6941229.

Molecular target: SBP-Asi2 (S. cerevisiae) (UniProt P53895)
Chain of UniProt P53895 (P53895 whole entry): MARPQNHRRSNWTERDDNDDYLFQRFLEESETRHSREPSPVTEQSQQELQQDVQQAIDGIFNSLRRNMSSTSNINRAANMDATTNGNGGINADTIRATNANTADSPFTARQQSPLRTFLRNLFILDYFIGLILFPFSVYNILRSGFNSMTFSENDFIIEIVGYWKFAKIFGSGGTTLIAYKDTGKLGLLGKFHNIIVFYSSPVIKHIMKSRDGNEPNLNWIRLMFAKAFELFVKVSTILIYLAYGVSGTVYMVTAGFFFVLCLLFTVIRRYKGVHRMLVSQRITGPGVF

Chain of TM68-MBP (P10614 1-68): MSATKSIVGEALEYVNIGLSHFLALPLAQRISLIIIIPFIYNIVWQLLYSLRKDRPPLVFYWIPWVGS

For “TM68-MBP (from UniProt P10614 1-68) (domain or fragment)”, the ubiquitination of TM68-MBP in proteoliposomes with only the Asi1/Asi3 subcomplex (no Asi2), against proteoliposomes with the entire Asi complex; Ubi Mix, 60 min was 28%.
